The series deals with the molecule itself. Kind of series: dynamic light scattering.

B1: Encapsulin from Thermotoga maritima (natural protein)
chain: MEFLKRSFAPLTEKQWQEIDNRAREIFKTQLYGRKFVDVEGPYGWEYAAHPLGEVEVLSDENEVVKWGLRKSLPLIELRATFTLDLWELDNLERGKPNVDLSSLEETVRKVAEFEDEVIFRGCEKSGVKGLLSFEERKIECGSTPKDLLEAIVRALSIFSKDGIEGPYTLVINTDRWINFLKEEAGHYPLEKRVEECLRGGKIITTPRIEDALVVSERGGDFKLILGQDLSIGYEDREKDAVRLFITETFTFQVVNPEALILLKF
B1: the binding result was “binds”.
